From publication PMC2887978 come the findings set out here.

For the series, the target named is MBD2b (UniProt Q9UBB5 150-411). As to the kind of experiment: EMSA.
Chain of MBD2b (Q9UBB5 150-411): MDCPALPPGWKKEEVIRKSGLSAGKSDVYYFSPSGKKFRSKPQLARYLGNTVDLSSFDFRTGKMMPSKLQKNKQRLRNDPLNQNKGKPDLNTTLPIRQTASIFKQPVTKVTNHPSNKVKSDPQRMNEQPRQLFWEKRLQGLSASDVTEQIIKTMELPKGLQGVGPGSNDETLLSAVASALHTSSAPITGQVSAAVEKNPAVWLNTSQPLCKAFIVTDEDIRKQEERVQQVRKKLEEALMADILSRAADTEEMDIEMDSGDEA

B1: C76 (dsDNA)
DNA 1: CCTCACCATCTCAACCAATATTATATTACGCGTATATCGCGTATTTCGCGTTATAATATTGAGGGAGAAGTGGTGA
DNA 2: TCACCACTTCTCCCTCAATATTATAACGCGAAATACGCGATATACGCGTAATATAATATTGGTTGAGATGGTGAGG
B1: the binding result is listed as “no binding”.
